# Publication PMC2807033 (2009)
# No end group written: not given here. *: point of attachment. Biotin = O=C1N[C@H]2[C@H](CS[C@H]2CCCCC(=O)*)N1
# B1: C33^Rep peptide (synthetic peptide corresponding to the C-terminal 33 residues of Rep) (peptide)
# peptide: Biotin-EQERKVVSAEERMQKGQSHLANLKAMMAAKRGK
# Target: E. coli replicative helicase DnaB, purified (E. coli, UniProt P0ACB0 1-471)
# Assay: SPR
# E. coli replicative helicase DnaB, purified, sequence (P0ACB0 whole entry): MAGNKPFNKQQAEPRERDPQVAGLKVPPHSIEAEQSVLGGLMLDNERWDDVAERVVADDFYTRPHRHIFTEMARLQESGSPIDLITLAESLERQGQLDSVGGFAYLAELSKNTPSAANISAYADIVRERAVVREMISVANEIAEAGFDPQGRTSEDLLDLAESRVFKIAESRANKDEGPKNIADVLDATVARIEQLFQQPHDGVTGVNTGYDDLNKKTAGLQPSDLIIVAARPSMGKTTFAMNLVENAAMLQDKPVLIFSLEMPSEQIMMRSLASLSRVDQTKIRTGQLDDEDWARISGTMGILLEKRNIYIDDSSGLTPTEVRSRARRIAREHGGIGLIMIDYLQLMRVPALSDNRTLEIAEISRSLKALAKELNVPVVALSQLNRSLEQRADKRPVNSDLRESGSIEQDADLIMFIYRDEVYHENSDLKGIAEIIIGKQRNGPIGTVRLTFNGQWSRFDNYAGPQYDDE
binder,measurement,value
B1,Kd,44 nM
